In US10494415B2, “Insulin-like growth factor 2 (IGF2) binding agents” (Cancer Research Technology Limited, priority 2015, dated 2019):
Marks after values point to notes of the source that are not given here.

Experiments:
IGF2^1-104 = molecular target: T1, IGF2^1-104 (Homo sapiens, UniProt P01344); experiment: SPR of IGF forms on Fc-domain 11 proteins immobilised by antibody capture; format: binding; details: HBS-EP pH 7.4
T1 construct: pro-IGF2 (pro-IGF2^1-104 [11 kDa]
Method: (§1) SPR analysis of the interaction of recombinant IGF1 and IGF2 forms with Fc-domain 11 proteins immobilised by antibody capture (CM5 chip containing monoclonal mouse anti-human IgG antibody immobilised by amine coupling). Measurements were carried out at 25° C. in HBS-EP buffer (pH 7.4).
(§2) Final kinetic analysis of mutants by SPR was conducted using a Biacore T200 biosensor at 25° C. in either HBS-EP (10 mM HEPES pH 7.4, 150 mM NaCl, 3 mM EDTA, and 0.005% (v/v) surfactant P20) or MES-EP (20 mM MES pH 6.5, 150 mM NaCl, 3 mM EDTA, and 0.005% (v/v) surfactant P20) at a flow-rate of 40 μL min^−1. […] For the analysis of the Fc-domain 11^AB5 interaction, approximately 50 RU of a biotinylated IGF2:biotinylated ubiquitin mixture (1:8 proportion) was immobilized on the CM5-streptavidin chip. This interaction was also analysed by immobilizing the Fc-domain 11^AB5 and Fc-domain 11^AB5-RHH (or Fc-domain 11^I1572A as control) by Human Antibody Capture (monoclonal mouse anti-human IgG antibody immobilised on a CM5 chip by amine coupling, GE Healthcare) with and without human IgG1 Fc fragment (Bethyl Laboratories, UK) in the control flow cell. Increasing concentrations of IGF2^1-67, proIGF2^1-104, proIGF2^1-156 and IGF1 ranging from 0.125 to 32 nM were injected. T200 BiaEvaluation software (GE Healthcare) was used to fit the resulting curves according to a 1:1 binding model. Steady state affinities were determined using the kinetic data, taking the response average at 5 seconds before injection end and for 5 seconds average. Thermodynamic data was performed across the temperature range of 10° C. to 30° C., van't Hoff and Erying plots generated and ΔH, −TΔS and ΔG values determined as previously described.

IGF2^1-156 = molecular target: T2, IGF2^1-156 (Homo sapiens, UniProt P01344); experiment: as above; format: binding
T2 construct: pro-IGF2^1-156 [17 kDa]
Method: as §1, §2

IGF2^1-67 = molecular target: T3, IGF2^1-67 (Homo sapiens, UniProt P01344); experiment: as above; format: binding; details: HBS-EP pH 7.4
T3 construct: Recombinant mature (IGF2^1-67 [7.5 kDa]
Method: as §1, §2

SKNMC-IGF2^104 cells = experiment: IGF2-TRAP synthetic lethality screen (resazurin viability); format: cell-based, human; details: fixed concentration of IGF2-TRAP alone, assay end point of 72 hrs
Method: For synthetic lethality screens (Target Discovery Institute, University of Oxford), either 2,500 or 5,000 SKNMC-IGF2104-IRES-luc cells were plated in medium containing 0.5% charcoal stripped FBS in 384 well plates and the IGF2-TRAP was added 24 h later to half of the plates. Using automated dispensing 307 oncology drugs that have been tested in man (TDI expanded Oncology Drug library) were added to cells 3 hrs later 10 μM, 1 μM, 100 nM and 10 nM, in the presence and absence of 250 nM IGF2-TRAP. After 48 hr of incubation, resazurin was added to a final concentration of 10 μg/mL and the fluorescence (Ex: 560 nm, Em: 590 nm) recorded at 2 hr. […] Pearson's product-moment correlation coefficient (r) was calculated to determine replicate correlation. […]
The interaction score was calculated where v was the viability readout for the drug condition, x^− was the sample mean of the negative controls and s was the sample standard deviation of the negative controls, z was calculated as z_treatment=(v−x^−)/s. z_(no_IT) was calculated from PBS control plates, comparing ‘drug d’ to same-plate negative controls ‘cells+DMSO’. z_IT was calculated from treated plates, comparing ‘drug d+IGF2-TRAP (IT)’ to same-plate negative controls ‘cells+IT+DMSO’. […] Interaction scores were calculated for each replicate r_(d,1)/r_(d,2)/r_(d,3) independently. […]

IGF2 in human serum = experiment: Neutral size fractionation of human serum before and after depletion with IGF2-TRAP beads, western blot
Method: FIG. 14 IGF2-TRAP modifies the molecular distribution of IGF2 in human serum. Normal (left) and NICTH (right) sera were fractionated in a gel filtration column at neutral pH, alongside a molecular weight calibration marker, before and after incubation and depletion with IGF2-TRAP-loaded protein G beads. Elution fractions were analysed by western blot.
Changes in the molecular distribution of circulating IGF2 upon IGF2-TRAP treatment were analysed by neutral size fractionation of human serum (FIG. 14). In adult human serum, western blots of the fractions reveal that IGF2 is mainly the mature lower molecular weight isoform, and is predominantly present in a ternary complex with IGFBP3 and the acid labile subunit (ALS) (˜150 kDa), and to a lesser extent in a binary complex with IGFBP3 (˜40 kDa), with free IGF2 below the limit of detection. […] Pull-downs confirmed that the depleted IGF2 specifically bound IGF2-TRAP. In a second experiment, serum from a patient with Non-Islet-Cell Tumour-associated Hypoglycaemia (NICTH) secondary to a GIST tumour was utilised.

T1 sequence (P01344 25-128): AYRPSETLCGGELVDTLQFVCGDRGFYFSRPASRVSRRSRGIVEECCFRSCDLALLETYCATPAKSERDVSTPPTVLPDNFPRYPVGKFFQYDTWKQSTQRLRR
Sequence of IGF2 in human serum (P01344 25-91 limits assumed): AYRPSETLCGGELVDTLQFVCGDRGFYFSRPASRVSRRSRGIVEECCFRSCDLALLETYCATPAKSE
T3 sequence (P01344 25-91): as the sequence (P01344 25-91 limits assumed) above
T2 sequence (P01344 25-180): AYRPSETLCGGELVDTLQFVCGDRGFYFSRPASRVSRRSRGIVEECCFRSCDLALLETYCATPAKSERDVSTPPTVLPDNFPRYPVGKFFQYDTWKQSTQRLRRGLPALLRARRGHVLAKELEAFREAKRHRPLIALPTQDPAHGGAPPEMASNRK

B1: Fc-domain 11^AB5-RHH: Fc-fusion of domain 11^AB5-RHH (IGF2-TRAP); IgG2 Fc form purified from CHO cells used for xenografts (protein)
chain: NEHDDCQVTNPSTGHLFDLSSLSGRAGFTAAYAKGWGVYMSICGENENCPPGVGACFGRTRISVGKANKRLRYVDQVLQLVYKDGSHCPSKHGLSYKSVISFVCRPEAGPTNRPMLISLDKQTCTLFFSWHTPLACEQAT
modifications: left off: a dimerising Fc or GST
notes: Fc-fusion of domain 11^AB5-RHH (IGF2-TRAP); IgG2 Fc form purified from CHO cells used for xenografts
Q: For B1, which Kinetics koff (IGF2^1-104) is on record?
A: 0.0005 s⁻¹

Q: And the Kinetics kon (IGF2^1-104)?
A: 1.29e+06 M⁻¹ s⁻¹

Q: And the Kinetics koff (IGF2^1-156; HBS-EP pH 7.4)?
A: 0.0003 s⁻¹

Q: What about the Kinetics kon (IGF2^1-156; may be inaccurate (mixture of three isoforms)) of the same molecule?
A: 0.23* ×10^6 M^−1s^−1

Q: And the Kinetics koff (IGF2^1-67)?
A: 0.0014 s⁻¹

Q: What about the Kinetics kon (IGF2^1-67) of the same molecule?
A: 2.6e+06 M⁻¹ s⁻¹

Q: And the “reduction in cell viability” value (SKNMC-IGF2^104 cells)?
A: 10-20%

Q: What about the “IGF2 distribution in serum after IGF2-TRAP depletion” value (IGF2 in human serum; NICTH patient serum) of the same molecule?
A: depleted both lower and higher molecular weight isoforms of IGF2

Q: And the “IGF2 distribution in serum after IGF2-TRAP depletion” value (IGF2 in human serum; normal adult human serum)?
A: depleted IGF2 in the binary complex
